From patent US20060211075 come the findings set out here.

The labels stand for the following.
T1: peptide 23, Dap-substituted pyrene derivative at Y+3 (not fully specified)
T1 chain: EEEIYGEXEA

B1: Csk (protein)
chain: MSAIQAAWPSGTECIAKYNFHGTAEQDLPFCKGDVLTIVAVTKDPNWYKAKNKVGREGIIPANYVQKREGVKAGTKLSLMPWFHGKITREQAERLLYPPETGLFLVRESTNYPGDYTLCVSCDGKVEHYRIMYHASKLSIDEEVYFENLMQLVEHYTSDADGLCTRLIKPKVMEGTVAAQDEFYRSGWALNMKELKLLQTIGKGEFGDVMLGDYRGNKVAVKCIKNDATAQAFLAEASVMTQLRHSNLVQLLGVIVEEKGGLYIVTEYMAKGSLVDYLRSRGRSVLGGDCLLKFSLDVCEAMEYLEGNNFVHRDLAARNVLVSEDNVAKVSDFGLTKEASSTQDTGKLPVKWTAPEALREKKFSTKSDVWSFGILLWEIYSFGRVPYPRIPLKDVVPRVEKGYKMDAPDGCPPAVYEVMKNCWHLDAAMRPSFLQLREQLEHIKTHELHL
B2: Flt3 (protein)
chain: HKYKKQFRYESQLQMVQVTGSSDNEYFYVDFREYEYDLKWEFPRENLEFGKVLGSGAFGKVMNATAYGISKTGVSIQVAVKMLKEKADSSEREALMSELKMMTQLGSHENIVNLLGACTLSGPIYLIFEYCCYGDLLNYLRSKREKFHRTWTEIFKEHNFSFYPTFQSHPNSSMPGSREVQIHPDSDQISGLHGNSFHSEDEIEYENQKRLEEEEDLNVLTFEDLLCFAYQVAKGMEFLEFKSCVHRDLAARNVLVTHGKVVKICDFGLARDIMSDSNYVVRGNARLPVKWMAPESLFEGIYTIKSDVWSYGILLWEIFSLGVNPYPGIPVDANFYKLIQNGFKMDQPFYATEEIYIIMQSCWAFDSRKRPSFPNLTSFLGCQLADAEEAMYQNVDGRVSECPHTYQNRRPFSREMDLGLLSPQAQVEDS
B3: LynB (protein)
chain: MGCIKSKGKDSLSDDGVDLKTQPVPESQLLPGQRFQTKDPEEQGDIVVALYPYDGIHPDDLSFKKGEKMKVLEEHGEWWKAKSLLTKKEGFIPSNYVAKLNTLETEEWFFKDITRKDAERQLLAPGNSAGAFLIRESETLKGSFSLSVRDFDPVHGDVIKHYKIRSLDNGGYYISPRITFPCISDMIKHYQKQADGLCRRLEKACISPKPQKPWDKDAWEIPRESIKLVKRLGAGQFGEVWMGYYNNSTKVAVKTLKPGTMSVQAFLEEANLMKTLQHDKLVRLYAVVTREEPIYIITEYMAKGSLLDFLKSDEGGKVLLPKLIDFSAQIAEGMAYIERKNYIHRDLRAANVLVSESLMCKIADFGLARVIEDNEYTAREGAKFPIKWTAPEAINFGCFTIKSDVWSFGILLYEIVTYGKIPYPGRTNADVMTALSQGYRMPRVENCPDELYDIMKMCWKEKAEERPTFDYLQSVLDDFYTATEGQYQQQP
B4: Fes/Fps (protein)
chain: MGFSSELCSPQGHGVLQQMQEAELRLLEGMRKWMAQRVKSDREYAGLLHHMSLQDSGGQSRAISPDSPISQSWAEITSQTEGLSRLLRQHAEDLNSGPLSKLSLLIRERQQLRKTYSEQWQQLQQELTKTHSQDIEKLKSQYRALARDSAQAKRKYQEASKDKDRDKAKDKYVRSLWKLFAHHNRYVLGVRAAQLHHQHHHQLLLPGLLRSLQDLHEEMACILKEILQEYLEISSLVQDEVVAIHREMAAAAARIQPEAEYQGFLRQYGSAPDVPPCVTFDESLLEEGEPLEPGELQLNELTVESVQHTLTSVTDELAVATEMVFRRQEMVTQLQQELRNEEENTHPRERVQLLGKRQVLQEALQGLQVALCSQAKLQAQQELLQTKLEHLGPGEPPPVLLLQDDRHSTSSSEQEREGGRTPTLEILKSHISGIFRPKFSLPPPLQLIPEVQKPLHEQLWYHGAIPRAEVAELLVHSGDFLVRESQGKQEYVLSVLWDGLPRHFIIQSLDNLYRLEGEGFPSIPLLIDHLLSTQQPLTKKSGVVLHRAVPKDKWVLNHEDLVLGEQIGRGNFGEVFSGRLRADNTLVAVKSCRETLPPDLKAKFLQEARILKQYSHPNIVRLIGVCTQKQPIYIVMELVQGGDFLTFLRTEGARLRVKTLLQMVGDAAAGMEYLESKCCIHRDLAARNCLVTEKNVLKISDFGMSREEADGVYAASGGLRQVPVKWTAPEALNYGRYSSESDVWSFGILLWETFSLGASPYPNLSNQQTREFVEKGGRLPCPELCPDAVFRLMEQCWAYEPGQRPSFSTIYQELQSIRKRHR
B5: ZAP-70 (protein)
chain: MPDPAAHLPFFYGSISRAEAEEHLKLAGMADGLFLLRQCLRSLGGYVLSLVHDVRFHHFPIERQLNGTYAIAGGKAHCGPAELCEFYSRDPDGLPCNLRKPCNRPSGLEPQPGVFDCLRDAMVRDYVRQTWKLEGEALEQAIISQAPQVEKLIATTAHERMPWYHSSLTREEAERKLYSGAQTDGKFLLRPRKEQGTYALSLIYGKTVYHYLISQDKAGKYCIPEGTKFDTLWQLVEYLKLKADGLIYCLKEACPNSSASNASGAAAPTLPAHPSTLTHPQRRIDTLNSDGYTPEPARITSPDKPRPMPMDTSVYESPYSDPEELKDKKLFLKRDNLLIADIELGCGNFGSVRQGVYRMRKKQIDVAIKVLKQGTEKADTEEMMREAQIMHQLDNPYIVRLIGVCQAEALMLVMEMAGGGPLHKFLVGKREEIPVSNVAELLHQVSMGMKYLEEKNFVHRDLAARNVLLVNRHYAKISDFGLSKALGADDSYYTARSAGKWPLKWYAPECINFRKFSSRSDVWSYGVTMWEALSYGQKPYKKMKGPEVMAFIEQGKRMECPPECPPELYALMSDCWIYKWEDRPDFLTVEQRMRACYYSLASKVEGPPGSTQKAEAACA
B6: MLK1 (protein)
chain: PPIQLLEIDFAELTLEEIIGIGGFGKVYRAFWIGDEVAVKAARHDPDEDISQTIENVRQEAKLFAMLKHPNIIALRGVCLKEPNLCLVMEFARGGPLNRVLSGKRIPPDILVNWAVQIARGMNYLHDEAIVPIIHRDLKSSNILILQKVENGDLSNKILKITDFGLAREWHRTTKMSAAGTYAWMAPEVIRASMFSKGSDVWSYGVLLWELLTGEVPFRGIDGLAVAYGVAMNKLALPIPSTCPEPFAKLMEDCWNPDPHSRPSFTNILDQLTTIEESGFFE
B7: c-Met (protein)
chain: KKRKQIKDLGSELVRYDARVHTPHLDRLVSARSVSPTTEMVSNESVDYRATFPEDQFPNSSQNGSCRQVQYPLTDMSPILTSGDSDISSPLLQNTVHIDLSALNPELVQAVQHVVIGPSSLIVHFNEVIGRGHFGCVYHGTLLDNDGKKIHCAVKSLNRITDIGEVSQFLTEGIIMKDFSHPNVLSLLGICLRSEGSPLVVLPYMKHGDLRNFIRNETHNPTVKDLIGFGLQVAKGMKYLASKKFVHRDLAARNCMLDEKFTVKVADFGLARDMYDKEYYSVHNKTGAKLPVKWMALESLQTQKFTTKSDVWSFGVLLWELMTRGAPPYPDVNTFDITVYLLQGRRLLQPEYCPDPLYEVMLKCWHPKAEMRPSFSELVSRISAIFSTFIGEHYVHVNATYVNVKCVAPYPSLLSSEDNADDEVDTRPASFWETS

The series has as its target T1, peptide 23, Dap-substituted pyrene ….
In general, Km refers to the substrate concentration at which the rate is half of its maximum. Broadly, the Vmax is the rate approached at saturating substrate. For B1, the Michaelis constant (Km) worked out at 120 µM and the Vmax stood at 0.4 µmol/min/mg. As for B2, the Km worked out at 450 µM and the Vmax is 4.9 µmol/min/mg. On the same counts, the results for B3 are 130 µM and 4 µmol/min/mg.

Turning to B4, the Km amounted to 60 µM and the Vmax is 3 µmol/min/mg. Regarding B5, the “phosphorylation of the peptide (fluorescence)” value (“phosphorylation of the peptide” for short) was “unable to effectively catalyze the phosphorylation of either 23 or 25”. For the protein B6, the “phosphorylation of the peptide” value is on record as “unable to effectively catalyze the phosphorylation of either 23 or 25”.

Turning to B7, the “phosphorylation of the peptide” value was “unable to effectively catalyze the phosphorylation of either 23 or 25”.
